# Changes are numbered by the printed parent chain.
# B1: VH32 (VHH)
# VHH: QVQLVESGGGLVQPGGSLRLSCAASGFTFSSFAMSWVRQAPGKGLEWVSAISGSGGRTHYADSVKGRFTISRDNSKNTLYLQMNSLRAEDTAVYYCAKEALTGVFDYWGQGTLVTVSS
# notes: also called VHH32
# B2: VH29 (VHH)
# VHH: QVQLVESGGGLVQPGGSLRLSCAASGFTFSSYAMSWVRQAPGKEPEWVSSISGGGSSTYYADSLKGRFTISRDNSKNTLYLQMNSLRAEDTAVYYCSRDPRFGEPPFDYWGQGTLVTVSS
# notes: also called VHH29
# B3: VH27 (VHH)
# VHH: B2 VHH with Q1E
# notes: also called VHH27
# B4: anti-GPC3 VHH-His tagged domain VHH7 (VHH)
# VHH: B2 VHH with Q1E, L115T
# notes: Produced from a mammalian expression vector as a His fusion; not shown: His tag
# B5: VH21 (VHH)
# VHH: B2 VHH with V48I, G54S, R98K
# notes: also called VHH21
# B6: VH36 (VHH)
# VHH: B2 VHH with L115T
# notes: also called VHH36
# B7: VH26 (VHH)
# VHH: B2 VHH with Q1E, V48I, G54S, R98K
# notes: also called VHH26
# B8: anti-GPC3 VHH-His tagged domain VHH1 (VHH)
# VHH: B2 VHH with Q1E, S56T, K65E, R98K, L115T
# notes: as for B4
# B9: anti-GPC3 VHH-His tagged domain VHH19 (VHH)
# VHH: B2 VHH with Q1E, V2E, S56G, S97A, F102Y, W110R, G111C, L115T
# notes: as for B4
# B10: anti-GPC3 VHH-His tagged domain VHH9 (VHH)
# VHH: B2 VHH with F107L, L115T
# notes: as for B4
# B11: anti-GPC3 VHH-His tagged domain VHH3 (VHH)
# VHH: EVQLVESGGGVVQPGRSLRLSCAASGFTFSNYLMQWVRQAPGKGLVWLSNINSDGSSTDYADSVKGRFTISRDNAKNTLYLQMNSLRAEDTAVYYCRVGAFDYWGQGTLVTVSS
# notes: as for B4
# Assays:
# [1] = target: T1, human GPC3 recombinant protein (human, UniProt P51654 25-559); test: SPR (Biacore) off-rate screen, periplasmic extract over human GPC3 on CM5; R0 29.7
# T1 construct: also called huGPC3; Human GPC3 protein
# T1 sequence (P51654 25-559 limits assumed): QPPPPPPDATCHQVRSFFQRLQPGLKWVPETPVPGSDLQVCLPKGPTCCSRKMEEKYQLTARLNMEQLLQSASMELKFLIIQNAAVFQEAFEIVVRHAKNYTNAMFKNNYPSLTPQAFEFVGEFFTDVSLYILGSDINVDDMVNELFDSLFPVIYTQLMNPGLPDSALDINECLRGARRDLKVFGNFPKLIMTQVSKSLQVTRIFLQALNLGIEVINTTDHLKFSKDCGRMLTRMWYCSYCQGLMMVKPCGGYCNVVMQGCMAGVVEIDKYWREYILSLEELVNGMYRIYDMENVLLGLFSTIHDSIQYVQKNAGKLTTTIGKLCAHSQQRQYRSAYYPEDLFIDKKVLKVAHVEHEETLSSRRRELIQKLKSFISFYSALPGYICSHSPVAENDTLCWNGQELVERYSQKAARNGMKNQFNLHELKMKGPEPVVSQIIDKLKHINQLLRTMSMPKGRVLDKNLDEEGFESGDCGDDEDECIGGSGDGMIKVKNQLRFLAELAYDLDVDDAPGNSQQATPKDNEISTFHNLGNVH
# Method: (§1) Human GPC3 protein in acetate buffer, pH 5.0, was immobilized in a sensor chip CM5 (GE Healthcare; Cat. Nr. BR-1005-30; Lot. Nr.10245232) and successful immobilization was confirmed by using a commercially available human GPC3 antibody (R&D cat. nr. MAB2119) and the anti-GPC3-VHH-Fc (both at 10 μg/mL). Periplasmic extracts from the MP were diluted in Biacore Buffer (0.01 M HEPES pH 7.4, 0.15 M NaCl, 3 mM EDTA, 0.05% P20) and injected over 2 minutes at 30 μL/min. 10 μl of 10 mM NaOH/1M NaCl were injected between samples and off-rates were measured over 5 minutes. Off-rate ([…]) were calculated using BIACORE software 1:1 interaction Langmuir binding model.
# [2] = target: T2, human GPC3 on HepG2 cells (human, UniProt P51654 25-554); test: FACS, phage-displayed clone on HepG2
# T2 construct: whole, on cells
# T2 sequence (P51654 25-554 limits assumed): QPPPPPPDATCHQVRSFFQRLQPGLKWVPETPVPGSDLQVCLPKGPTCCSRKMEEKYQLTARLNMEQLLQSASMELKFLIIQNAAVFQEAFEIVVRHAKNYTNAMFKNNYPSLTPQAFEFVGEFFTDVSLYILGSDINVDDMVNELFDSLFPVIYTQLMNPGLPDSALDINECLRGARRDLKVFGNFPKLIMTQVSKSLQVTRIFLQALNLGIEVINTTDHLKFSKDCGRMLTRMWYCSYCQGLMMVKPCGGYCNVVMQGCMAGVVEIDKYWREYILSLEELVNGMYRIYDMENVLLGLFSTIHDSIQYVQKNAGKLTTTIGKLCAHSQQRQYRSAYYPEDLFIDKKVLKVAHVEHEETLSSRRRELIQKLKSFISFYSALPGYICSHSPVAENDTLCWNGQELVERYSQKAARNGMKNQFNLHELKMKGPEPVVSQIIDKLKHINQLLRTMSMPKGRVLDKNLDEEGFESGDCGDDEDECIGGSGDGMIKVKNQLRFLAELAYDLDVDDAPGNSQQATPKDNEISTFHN
# Method: Binding of phage with surface expressed VHH domains to HepG2 cells was assessed using FACS. […] The cell suspension was distributed throughout at 96-well, U-bottom plate (85 μL/well) and incubated with phage (15 μL) on ice for 60 minutes with shaking.
# [3] = target: T2, human GPC3 on HepG2 cells; test: FACS, periplasmic extract 1:5 + anti-c-myc + GAM-APC on HepG2, well B4; same on A-431: 0.54%
# [4] = target: T2, human GPC3 on HepG2 cells; test: FACS, phage-displayed clone on HepG2, well B4; same clone on A-431 (no GPC3): 1.12%
# [5] = target: T2, human GPC3 on HepG2 cells; test: FACS, phage-displayed clone on HepG2, well B4; same clone on A-431 (no GPC3): 1095.02
# [6] = target: T2, human GPC3 on HepG2 cells; test: FACS, periplasmic extract 1:5 + anti-c-myc + GAM-APC on HepG2, well B4; same on A-431: 873.16
# [7] = target: T1, human GPC3 recombinant protein; test: SPR (Biacore) off-rate screen, periplasmic extract over human GPC3 on CM5; R0 38.8
# Method: as §1
# [8] = target: T1, human GPC3 recombinant protein; test: SPR (Biacore) off-rate screen, periplasmic extract over human GPC3 on CM5; R0 40.0
# Method: as §1
# [9] = target: T1, human GPC3 recombinant protein; test: SPR (Biacore) off-rate screen, periplasmic extract over human GPC3 on CM5; R0 46.9
# Method: as §1
# [10] = target: T1, human GPC3 recombinant protein; test: SPR (Biacore), summary table; Chi2 0.466; Profile 'Good'
# [11] = target: T1, human GPC3 recombinant protein; test: SPR (Biacore), VHH-His over human GPC3 on CM5; fit 197.5 - 17.34 nM; Rmax 10.9 RU; Chi2 0.466
# Method: (§2) Affinities of the 19 VHH-His tagged domains were then determined by BiaCore assay. Human GPC3 protein (Sino biological cat. nr. 10088-H08H-500) was immobilized on CM5 sensor chip (GE Healthcare) as antigen. Purified VHH-His tagged domains were diluted in BiaCore buffer (0.01 M HEPES pH 7.4, 0.15 M NaCl, 3 mM EDTA, 0.05% P20) to 500 nM and injected over 2 minutes at […] followed by a half dilution series to 7.8 nM. 10 μl of 10 mM NaOH/1M NaCl were injected between samples and then off-rate wash was 5 minutes.
# [12] = target: T1, human GPC3 recombinant protein; test: SPR (Biacore) off-rate screen, periplasmic extract over human GPC3 on CM5; R0 48.2
# Method: as §1
# [13] = target: T1, human GPC3 recombinant protein; test: SPR (Biacore) off-rate screen, periplasmic extract over human GPC3 on CM5; R0 36.0
# Method: as §1
# [14] = target: T1, human GPC3 recombinant protein; test: SPR (Biacore) off-rate screen, periplasmic extract over human GPC3 on CM5; R0 34.4
# Method: as §1
# [15] = target: T1, human GPC3 recombinant protein; test: SPR (Biacore), summary table; Chi2 0.465; Profile 'Very good'; FIG. 18 prints 6.01E-09
# [16] = target: T1, human GPC3 recombinant protein; test: SPR (Biacore) off-rate screen, periplasmic extract over human GPC3 on CM5; R0 26.5
# Method: as §1
# [17] = target: T1, human GPC3 recombinant protein; test: SPR (Biacore), VHH-His over human GPC3 on CM5; fit 197.5 - 17.34 nM; Rmax 10.9 RU; Chi2 0.465
# Method: as §2
# [18] = target: T1, human GPC3 recombinant protein; test: SPR epitope binning on human GPC3
# Method: The 19 VHH-His tagged domains were then evaluated for epitope-binding site. All VHHs were injected one at a time to evaluate the epitope binding site for each VHH domain. […] Human GPC3 was injected followed by an off rate wash for 4 minutes. No binding is observed if the VHH binds at the same epitope as VHH2, while a second binding event is observed if the VHH binds at a different epitope. All VHHs were binned into two groups based on the epitopes. VHH2 and VHH3 bind the same epitope and all other VHs bind the second epitope (FIG. 19).
# [19] = target: T2, human GPC3 on HepG2 cells; test: FACS, phage-displayed clone on HepG2, well F3; same clone on A-431 (no GPC3): 1412.11
# [20] = target: T2, human GPC3 on HepG2 cells; test: FACS, periplasmic extract 1:5 + anti-c-myc + GAM-APC on HepG2, well F3; same on A-431: 965.7
# [21] = target: T1, human GPC3 recombinant protein; test: SPR (Biacore), summary table; Chi2 0.266; Profile 'Good'
# Method: as §2
# [22] = target: T2, human GPC3 on HepG2 cells; test: FACS, phage-displayed clone on HepG2, well F3; same clone on A-431 (no GPC3): 1.39%
# [23] = target: T1, human GPC3 recombinant protein; test: SPR (Biacore) off-rate screen, periplasmic extract over human GPC3 on CM5; R0 39.2
# Method: as §1
# [24] = target: T1, human GPC3 recombinant protein; test: SPR (Biacore), VHH-His over human GPC3 on CM5; fit 131.7 - 17.34 nM; Rmax 9.97 RU; Chi2 0.266
# Method: as §2
# [25] = target: T2, human GPC3 on HepG2 cells; test: FACS, periplasmic extract 1:5 + anti-c-myc + GAM-APC on HepG2, well F3; same on A-431: 0.18%
# [26] = target: T2, human GPC3 on HepG2 cells; test: FACS, periplasmic extract 1:5 + anti-c-myc + GAM-APC on HepG2, well E4; same on A-431: 760.97
# [27] = target: T2, human GPC3 on HepG2 cells; test: FACS, periplasmic extract 1:5 + anti-c-myc + GAM-APC on HepG2, well E4; same on A-431: 0.25%
# [28] = target: T1, human GPC3 recombinant protein; test: SPR (Biacore) off-rate screen, periplasmic extract over human GPC3 on CM5; R0 61.6
# Method: as §1
# [29] = target: T1, human GPC3 recombinant protein; test: SPR (Biacore), VHH-His over human GPC3 on CM5; fit 62.5 - 7.8 nM; Rmax 22.5 RU; Chi2 0.207
# Method: as §2
# [30] = target: T2, human GPC3 on HepG2 cells; test: FACS, phage-displayed clone on HepG2, well E4; same clone on A-431 (no GPC3): 1163.66
# [31] = target: T1, human GPC3 recombinant protein; test: SPR (Biacore), summary table; Chi2 0.207; Profile 'Very good'
# Method: as §2
# [32] = target: T2, human GPC3 on HepG2 cells; test: FACS, phage-displayed clone on HepG2, well E4; same clone on A-431 (no GPC3): 2.08%
binder,measurement,setting,value
B1,koff,[1],0.0948 s⁻¹
same,binding result,[2],no binding
B2,% of Binding,[3],1.43%
same,% of Binding,[4],35.7%
same,Mean FL2-A,[5],11100
same,Mean FL4-A,[6],931
same,koff,[7],0.00493 s⁻¹
B3,koff,[8],0.00387 s⁻¹
B4,koff,[9],0.00457 s⁻¹
same,Kd,[10],6.84 nM
same,Ka,[11],1.46e+08 M⁻¹
same,Kd,[11],6.84 nM
same,koff,[11],0.00262 s⁻¹
same,kon,[11],383000 M⁻¹ s⁻¹
B5,koff,[12],0.00269 s⁻¹
B6,koff,[13],0.00566 s⁻¹
B7,koff,[14],0.00379 s⁻¹
B8,Kd,[15],4.29 nM
same,koff,[16],0.00247 s⁻¹
same,Ka,[17],1.66e+08 M⁻¹
same,Kd,[17],6.01 nM
same,koff,[17],0.00167 s⁻¹
same,kon,[17],278000 M⁻¹ s⁻¹
B9,binding result,[18],binds
B10,Mean FL2-A,[19],130000
same,Mean FL4-A,[20],1830
same,Kd,[21],6.15 nM
same,% of Binding,[22],89%
same,koff,[23],0.0062 s⁻¹
same,Ka,[24],1.63e+08 M⁻¹
same,Kd,[24],6.15 nM
same,koff,[24],0.00326 s⁻¹
same,kon,[24],530000 M⁻¹ s⁻¹
same,% of Binding,[25],0.52%
B11,Mean FL4-A,[26],796
same,% of Binding,[27],0.27%
same,koff,[28],0.00154 s⁻¹
same,Ka,[29],3.09e+08 M⁻¹
same,Kd,[29],3.23 nM
same,koff,[29],0.00141 s⁻¹
same,kon,[29],435000 M⁻¹ s⁻¹
same,Mean FL2-A,[30],18600
same,Kd,[31],3.23 nM
same,% of Binding,[32],60.1%
